Laboratory results as given in article PMC5143326.

Legend:
LRP1 (Homo sapiens) = LRP1 (Homo sapiens) (UniProt Q07954); conditions: cited from earlier work
[1] = biological target: low density lipoprotein receptor-related protein 1 (LRP1), purified from placenta; assay: SPR; Biacore T100; LRP1 immobilised on CM5 chip at 3.4 fmol/mm2; CCN-2 or its fragments flowed over; 10 mM Hepes pH 7.4, 150 mM NaCl, 5 mM CaCl2, 0.005 % surfactant P20; 25 °C; affinity constants by steady-state analysis

Sequence of UniProt Q07954 (Q07954 20-4544): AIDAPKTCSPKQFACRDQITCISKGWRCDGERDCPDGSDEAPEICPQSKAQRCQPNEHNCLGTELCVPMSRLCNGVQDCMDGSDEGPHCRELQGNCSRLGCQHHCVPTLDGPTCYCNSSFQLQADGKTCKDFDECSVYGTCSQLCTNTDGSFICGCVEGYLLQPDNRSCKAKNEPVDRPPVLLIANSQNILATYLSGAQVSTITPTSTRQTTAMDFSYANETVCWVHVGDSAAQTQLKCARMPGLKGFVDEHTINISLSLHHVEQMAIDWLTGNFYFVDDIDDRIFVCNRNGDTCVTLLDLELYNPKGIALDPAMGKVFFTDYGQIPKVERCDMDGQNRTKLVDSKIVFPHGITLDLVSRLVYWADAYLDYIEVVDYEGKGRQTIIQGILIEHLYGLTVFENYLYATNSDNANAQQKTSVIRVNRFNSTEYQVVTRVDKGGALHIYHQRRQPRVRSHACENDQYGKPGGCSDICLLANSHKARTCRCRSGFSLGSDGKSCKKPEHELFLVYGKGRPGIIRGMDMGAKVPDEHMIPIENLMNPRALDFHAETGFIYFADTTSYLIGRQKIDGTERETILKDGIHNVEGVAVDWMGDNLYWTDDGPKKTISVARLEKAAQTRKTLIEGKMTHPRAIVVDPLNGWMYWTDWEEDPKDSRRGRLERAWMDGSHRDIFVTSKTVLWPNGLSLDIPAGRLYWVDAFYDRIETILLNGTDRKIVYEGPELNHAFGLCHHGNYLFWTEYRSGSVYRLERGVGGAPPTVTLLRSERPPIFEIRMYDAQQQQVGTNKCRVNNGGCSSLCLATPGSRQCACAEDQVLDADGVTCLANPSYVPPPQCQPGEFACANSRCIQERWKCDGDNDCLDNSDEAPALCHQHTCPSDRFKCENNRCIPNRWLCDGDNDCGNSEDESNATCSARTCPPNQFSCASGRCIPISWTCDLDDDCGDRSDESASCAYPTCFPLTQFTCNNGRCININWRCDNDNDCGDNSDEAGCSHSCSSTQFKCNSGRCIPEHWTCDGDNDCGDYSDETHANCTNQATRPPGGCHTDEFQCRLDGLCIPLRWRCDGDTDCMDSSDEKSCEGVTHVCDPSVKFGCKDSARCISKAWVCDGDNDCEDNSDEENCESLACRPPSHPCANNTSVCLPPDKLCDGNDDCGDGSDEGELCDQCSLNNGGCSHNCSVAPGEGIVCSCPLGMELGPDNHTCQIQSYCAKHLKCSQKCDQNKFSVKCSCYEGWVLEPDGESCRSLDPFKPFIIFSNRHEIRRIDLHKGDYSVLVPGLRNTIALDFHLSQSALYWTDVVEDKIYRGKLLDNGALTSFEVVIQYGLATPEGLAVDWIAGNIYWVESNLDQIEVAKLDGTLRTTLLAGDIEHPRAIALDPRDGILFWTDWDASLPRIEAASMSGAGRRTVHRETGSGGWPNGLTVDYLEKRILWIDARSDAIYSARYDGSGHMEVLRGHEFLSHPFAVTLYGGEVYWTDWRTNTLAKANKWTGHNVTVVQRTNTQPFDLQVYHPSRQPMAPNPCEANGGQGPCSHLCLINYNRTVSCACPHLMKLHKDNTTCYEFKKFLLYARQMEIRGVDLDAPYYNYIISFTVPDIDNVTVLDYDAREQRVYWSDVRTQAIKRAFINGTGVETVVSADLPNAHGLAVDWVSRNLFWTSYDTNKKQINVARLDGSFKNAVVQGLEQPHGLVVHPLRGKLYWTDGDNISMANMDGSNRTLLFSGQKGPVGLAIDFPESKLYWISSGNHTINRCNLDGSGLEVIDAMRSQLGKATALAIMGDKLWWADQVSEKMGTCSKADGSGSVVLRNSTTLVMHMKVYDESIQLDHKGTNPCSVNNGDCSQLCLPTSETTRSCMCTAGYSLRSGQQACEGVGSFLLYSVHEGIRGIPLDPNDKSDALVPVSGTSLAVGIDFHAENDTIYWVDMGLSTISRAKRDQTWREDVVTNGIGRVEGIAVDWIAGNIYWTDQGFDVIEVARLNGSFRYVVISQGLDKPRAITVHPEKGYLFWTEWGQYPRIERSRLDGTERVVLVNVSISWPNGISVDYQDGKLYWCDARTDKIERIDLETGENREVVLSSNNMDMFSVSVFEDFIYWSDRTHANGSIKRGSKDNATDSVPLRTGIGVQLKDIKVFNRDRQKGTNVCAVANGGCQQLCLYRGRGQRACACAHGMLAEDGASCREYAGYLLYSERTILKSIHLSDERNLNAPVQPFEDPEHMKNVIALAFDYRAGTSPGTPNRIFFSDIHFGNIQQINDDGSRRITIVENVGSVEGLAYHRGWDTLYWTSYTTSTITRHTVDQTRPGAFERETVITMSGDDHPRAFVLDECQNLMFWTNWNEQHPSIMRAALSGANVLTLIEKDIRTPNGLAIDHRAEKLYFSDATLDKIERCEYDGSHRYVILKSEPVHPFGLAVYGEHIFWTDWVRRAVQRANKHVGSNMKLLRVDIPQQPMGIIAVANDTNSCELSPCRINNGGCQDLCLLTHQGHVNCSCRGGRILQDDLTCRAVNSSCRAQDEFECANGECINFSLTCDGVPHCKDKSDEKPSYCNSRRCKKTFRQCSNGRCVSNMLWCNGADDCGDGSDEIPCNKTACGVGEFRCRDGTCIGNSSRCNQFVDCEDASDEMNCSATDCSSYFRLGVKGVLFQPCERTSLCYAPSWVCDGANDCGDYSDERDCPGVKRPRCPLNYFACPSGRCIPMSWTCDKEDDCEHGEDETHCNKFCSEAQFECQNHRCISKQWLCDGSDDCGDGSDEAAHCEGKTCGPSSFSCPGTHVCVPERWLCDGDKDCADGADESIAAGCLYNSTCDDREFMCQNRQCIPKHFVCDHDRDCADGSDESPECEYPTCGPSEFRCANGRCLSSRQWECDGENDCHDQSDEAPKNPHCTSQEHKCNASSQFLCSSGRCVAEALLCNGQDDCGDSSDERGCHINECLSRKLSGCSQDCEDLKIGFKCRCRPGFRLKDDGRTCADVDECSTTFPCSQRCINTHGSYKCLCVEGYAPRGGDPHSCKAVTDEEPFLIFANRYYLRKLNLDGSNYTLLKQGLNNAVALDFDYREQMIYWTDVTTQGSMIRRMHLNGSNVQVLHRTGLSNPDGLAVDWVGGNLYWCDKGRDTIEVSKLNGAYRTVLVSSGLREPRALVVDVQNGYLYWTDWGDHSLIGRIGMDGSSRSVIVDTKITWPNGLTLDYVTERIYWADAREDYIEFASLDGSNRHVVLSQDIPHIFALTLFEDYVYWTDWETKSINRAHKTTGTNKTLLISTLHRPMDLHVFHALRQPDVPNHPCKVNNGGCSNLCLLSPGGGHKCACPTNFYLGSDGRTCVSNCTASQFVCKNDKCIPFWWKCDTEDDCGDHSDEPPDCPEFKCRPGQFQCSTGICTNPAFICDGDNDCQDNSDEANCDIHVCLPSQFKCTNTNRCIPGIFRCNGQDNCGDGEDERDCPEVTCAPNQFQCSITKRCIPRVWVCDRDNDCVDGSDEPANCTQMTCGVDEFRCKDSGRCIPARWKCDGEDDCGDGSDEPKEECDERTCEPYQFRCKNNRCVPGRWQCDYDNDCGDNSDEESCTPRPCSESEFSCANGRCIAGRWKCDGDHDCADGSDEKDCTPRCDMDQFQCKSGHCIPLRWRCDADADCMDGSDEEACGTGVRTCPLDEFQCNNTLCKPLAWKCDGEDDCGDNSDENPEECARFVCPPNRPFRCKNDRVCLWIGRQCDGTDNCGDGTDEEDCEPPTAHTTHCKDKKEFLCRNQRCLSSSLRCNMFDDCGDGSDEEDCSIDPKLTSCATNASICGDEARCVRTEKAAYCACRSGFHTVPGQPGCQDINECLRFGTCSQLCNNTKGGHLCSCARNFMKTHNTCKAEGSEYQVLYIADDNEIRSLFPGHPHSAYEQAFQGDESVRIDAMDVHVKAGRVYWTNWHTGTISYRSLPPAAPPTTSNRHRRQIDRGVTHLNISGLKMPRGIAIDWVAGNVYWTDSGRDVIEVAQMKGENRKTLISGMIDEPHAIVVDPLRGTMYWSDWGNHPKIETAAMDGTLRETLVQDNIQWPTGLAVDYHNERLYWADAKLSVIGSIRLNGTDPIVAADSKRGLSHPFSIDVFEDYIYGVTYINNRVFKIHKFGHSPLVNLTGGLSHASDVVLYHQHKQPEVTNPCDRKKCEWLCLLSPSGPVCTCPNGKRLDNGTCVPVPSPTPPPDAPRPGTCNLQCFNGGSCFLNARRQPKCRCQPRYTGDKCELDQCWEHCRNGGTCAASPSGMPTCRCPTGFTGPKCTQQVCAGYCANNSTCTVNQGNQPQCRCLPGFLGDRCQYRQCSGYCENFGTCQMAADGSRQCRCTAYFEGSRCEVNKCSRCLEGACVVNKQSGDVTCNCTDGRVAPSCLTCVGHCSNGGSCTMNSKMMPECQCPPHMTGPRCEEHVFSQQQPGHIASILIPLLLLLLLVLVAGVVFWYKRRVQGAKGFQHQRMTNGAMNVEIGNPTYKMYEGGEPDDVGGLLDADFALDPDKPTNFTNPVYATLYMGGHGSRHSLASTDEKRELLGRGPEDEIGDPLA

Kd [1] [nM]	Substance	Kd (LRP1 (Homo sapiens)) [nM]
–	RAP (from UniProt P30533)	5.4
112	recombinant human CCN-2 C-terminal fragment (domain 3 and 4) (domain or fragment)	–
116	recombinant human full length CCN-2 (connective tissue growth factor) (from UniProt P29279 27-349) (natural protein)	–
